Results from the supplement of paper PMC10567573.

B1: FBXO34 (parent)
chain: ASSVESTLPVLEASSWKKQVSHDF
B2: EHMT1 (parent)
chain: SARQGELQKVLLMLVDGIDPNFKM

Variants of: B1
Test: protein stability index of a GFP-peptide fusion (GPS, HEK-293T) (PSI 1-6); higher = more stable
Settings: c terminus: a fixed tail appended
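Further: lentivirally expressed fusions sorted by FACS into six bins by GFP to DsRed ratio, PSI derived from sequencing read proportions per bin multiplied by bin number.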

Protein stability index: each site, then its substitutions
S15: T 3.07, K 3.92, H 3.24, D 4.01, L 3.4, F 2.75
Q19: E 4.58, P 4.53, S 4.08, H 4.77, I 2.45, N 3.97, Y 2.01, L 2.57, C 2.92, F 2.82, M 2.27, R 1.95, K 1.89, T 3.3, D 4.28, A 2.61, W 2.59, G 4.14

Variants of: B2
Test: as above
Settings: c terminus: a fixed tail appended

Protein stability index of substitutions, site by site:
Q4: D 1.61, E 1.94, K 1.35, M 3.05, I 2.56, L 3.17, N 1.6, C 2.29, P 2.15, G 1.83, T 2.01, F 3.15, Y 1.94, A 2.27, S 1.53
E6: W 1.89, Y 3.65, F 2.34, L 1.99, M 2.91, S 2.6, H 2.02, P 2.45, I 3.51, Q 1.87, N 2.15, D 1.69, T 2.4
L7: H 3.17, T 1.62, Q 1.7, E 2.35, M 1.27, S 1.43, P 1.84, V 1.03, K 1.67, I 2.81, F 1.04, A 1.91, G 1.59, R 2.12, Y 1.5, N 1.36, D 2.19, C 1.03
G5: A 2.65, Q 1.93, S 1.64, F 1.98, Y 1.92, P 3.53, T 3.12, I 3.95, E 1.59, H 1.97, M 3.61, W 2.55, D 1.94, R 3.6, N 2.26, C 1.79
S1: E 1.66, H 2.42, L 1.03, I 1.39, D 1.18, Y 1.45, R 2.2, P 1.83, C 2.34, W 2.93, F 1.97, G 2.05, T 2.12, N 2.67, K 2.31, Q 2.03, M 1.42
A2: V 1.75, I 2.21, F 2.81, P 2.31, K 1.22, G 1.02, E 1.86, M 2.95, T 3.06, D 1.61, R 1.28, N 3.47, Q 1.78, S 3.14, L 3.91, H 2.27, C 3.59
Q8: Y 1.76, N 2.23, F 3.86, D 1.43, E 2.73, K 1.57, P 1.76, T 2.02, G 2.25, S 1.87, L 3.28, H 1.93, I 2.01
K9: H 1.62, N 1.91, R 1.68, V 4.22, Q 2.37, S 2.79, P 1.95, F 3.96, D 1.62, A 2.51, T 2.9
R3: F 1.86, G 1.86, T 1.76, A 1.96, E 2.2, Y 1.88, S 1.75, N 2.38, H 1.5, Q 2.25, P 2.83, C 1.83, K 2.8, D 1.78, I 2.15, L 2.39, W 3.4
V10: A 2.33, D 3.36, F 4.02, E 3.02, C 1.77, G 1.94
